Measurements: US20250250357A1 (NANJING ZAIMING PHARMACEUTICAL, published 2025)

Columns and labels:
[1] = target: T1, human MSLN-hFc protein (Acro, Cat. No. MSN-H5253) (human, UniProt Q13421 296-580); experiment: ELISA on coated antigen, antibody 10 nM
T1 construct: the method names the coated protein as human MSLN-hFc (Acro); also called human MSLN full-length protein

human MSLN-R3 protein [2] = target: T2, human MSLN-R3 protein (human, UniProt Q13421 487-598); experiment: ELISA on coated antigen, antibody 10 nM
T2 construct: also called hMSLN-R3
T2 sequence (Q13421 495-606, form in doubt): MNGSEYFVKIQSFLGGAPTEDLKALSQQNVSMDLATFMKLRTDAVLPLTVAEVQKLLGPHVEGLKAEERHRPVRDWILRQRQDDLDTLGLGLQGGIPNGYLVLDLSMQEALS

[3] = target: T1, human MSLN-hFc protein (Acro, Cat. No. …); experiment: ELISA on coated antigen, antibody 100 nM
[4] = target: T1, human MSLN-hFc protein (Acro, Cat. No. …); experiment: ELISA on coated antigen, antibody 0.0001 nM
[5] = target: T1, human MSLN-hFc protein (Acro, Cat. No. …); experiment: ELISA on coated antigen, antibody 0.01 nM
human MSLN-R3 protein [6] = target: T2, human MSLN-R3 protein; experiment: ELISA on coated antigen, antibody 0.001 nM
[7] = target: T1, human MSLN-hFc protein (Acro, Cat. No. …); experiment: ELISA on coated antigen, antibody 0.001 nM
[8] = target: T1, human MSLN-hFc protein (Acro, Cat. No. …); experiment: ELISA on coated antigen, antibody 1 nM
human MSLN-R3 protein [9] = target: T2, human MSLN-R3 protein; experiment: ELISA on coated antigen, antibody 0.1 nM
human MSLN-R3 protein [10] = target: T2, human MSLN-R3 protein; experiment: ELISA on coated antigen, antibody 0.0001 nM
[11] = target: T1, human MSLN-hFc protein (Acro, Cat. No. …); experiment: ELISA on coated antigen, antibody 0.1 nM
human MSLN-R3 protein [12] = target: T2, human MSLN-R3 protein; experiment: ELISA on coated antigen, antibody 1 nM
human MSLN-R3 protein [13] = target: T2, human MSLN-R3 protein; experiment: ELISA on coated antigen, antibody 100 nM
human MSLN-R3 protein [14] = target: T2, human MSLN-R3 protein; experiment: ELISA on coated antigen, antibody 0.01 nM

T1 sequence (Q13421 other isoform, or with tags, fused parts or gaps limits assumed): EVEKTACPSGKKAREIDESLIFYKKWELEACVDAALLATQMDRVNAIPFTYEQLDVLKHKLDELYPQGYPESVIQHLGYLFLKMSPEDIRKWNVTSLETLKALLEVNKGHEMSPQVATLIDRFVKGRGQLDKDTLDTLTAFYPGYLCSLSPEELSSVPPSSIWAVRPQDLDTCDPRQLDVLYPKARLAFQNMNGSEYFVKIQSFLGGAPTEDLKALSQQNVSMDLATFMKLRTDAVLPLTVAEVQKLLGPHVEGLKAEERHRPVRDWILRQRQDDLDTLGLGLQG

B1: F7.44.20-VL-VH (scFv, not shown: small tags and cut ends)
scFv: QIVLTQSPALMSASPGEKVTLTCSASSSVISSYLSWYQQKPGSSPKLLIYRTSNLASGVPARFSGSGSGTSYSLTISSMEAEDAASYFCHQWSSFPYTFGGGTKLEIKGGGGSGGGGSGGGGSEVQLQQSGPELVKPGASVKIPCKASGYTFTDYNMDWVKQSHGKSLEWIGDINPSTGGTIYNQKFNGKATLTEDKSASTVYMEFRSLTSDDTAVYYCARRRIGTGYFDVWGTGTTVTVSS
notes: also called S009-F7.44.20 parental variable regions, VL-VH order
**Q.** B1 was tested. Which OD450 [1] did it give?
**A.** The OD450 was 2.14 OD450.

**Q.** And the OD450 (human MSLN-R3 protein [2])?
**A.** The OD450 was 1.68 OD450.

**Q.** And the OD450 [3]?
**A.** The OD450 was 2.98 OD450.

**Q.** And the OD450 [4]?
**A.** The OD450 was 0.04 OD450.

**Q.** And the OD450 [5]?
**A.** Its OD450 is 0.05 OD450.

**Q.** What about the OD450 (human MSLN-R3 protein [6]) of the same binder?
**A.** Its OD450 is 0.04 OD450.

**Q.** What about the OD450 [7] of the same binder?
**A.** The OD450 was 0.2 OD450.

**Q.** What about the OD450 [8] of the same binder?
**A.** Its OD450 is 1.06 OD450.

**Q.** What about the OD450 (human MSLN-R3 protein [9]) of the same binder?
**A.** Its OD450 is 0.08 OD450.

**Q.** What about the OD450 (human MSLN-R3 protein [10]) of the same binder?
**A.** Its OD450 is 0.05 OD450.

**Q.** And the OD450 [11]?
**A.** Its OD450 is 0.11 OD450.

**Q.** What about the OD450 (human MSLN-R3 protein [12]) of the same binder?
**A.** Its OD450 is 0.55 OD450.

**Q.** What about the OD450 (human MSLN-R3 protein [13]) of the same binder?
**A.** The OD450 was 1.8 OD450.

**Q.** And the OD450 (human MSLN-R3 protein [14])?
**A.** Its OD450 is 0.05 OD450.

B2: F7.44.20 (scFv, not shown: small tags and cut ends)
scFv: EVQLQQSGPELVKPGASVKIPCKASGYTFTDYNMDWVKQSHGKSLEWIGDINPSTGGTIYNQKFNGKATLTEDKSASTVYMEFRSLTSDDTAVYYCARRRIGTGYFDVWGTGTTVTVSSGGGGSGGGGSGGGGSQIVLTQSPALMSASPGEKVTLTCSASSSVISSYLSWYQQKPGSSPKLLIYRTSNLASGVPARFSGSGSGTSYSLTISSMEAEDAASYFCHQWSSFPYTFGGGTKLEIK
notes: also called S009-F7.44.20 (parental variable regions, in the humanized-antibody ELISA)
**Q.** B2 was tested. Which OD450 [1] did it give?
**A.** Its OD450 is 2.48 OD450.

**Q.** And the OD450 (human MSLN-R3 protein [2])?
**A.** Its OD450 is 1.68 OD450.

**Q.** And the OD450 [3]?
**A.** The OD450 was 2.97 OD450.

**Q.** What about the OD450 [4] of the same binder?
**A.** Its OD450 is 0.04 OD450.

**Q.** And the OD450 [5]?
**A.** The OD450 was 0.05 OD450.

**Q.** And the OD450 (human MSLN-R3 protein [6])?
**A.** Its OD450 is 0.04 OD450.

**Q.** What about the OD450 [7] of the same binder?
**A.** The OD450 was 0.17 OD450.

**Q.** And the OD450 [8]?
**A.** Its OD450 is 0.83 OD450.

**Q.** And the OD450 (human MSLN-R3 protein [9])?
**A.** Its OD450 is 0.07 OD450.

**Q.** And the OD450 (human MSLN-R3 protein [10])?
**A.** The OD450 was 0.04 OD450.

**Q.** What about the OD450 [11] of the same binder?
**A.** Its OD450 is 0.22 OD450.

**Q.** What about the OD450 (human MSLN-R3 protein [12]) of the same binder?
**A.** The OD450 was 0.39 OD450.

**Q.** What about the OD450 (human MSLN-R3 protein [13]) of the same binder?
**A.** The OD450 was 1.96 OD450.

**Q.** And the OD450 (human MSLN-R3 protein [14])?
**A.** The OD450 was 0.04 OD450.

B3: F7.44.20-H3 (scFv, not shown: small tags and cut ends)
scFv: EVQLVQSGAEVKKPGASVKVSCKASGYTFTDYNMDWVRQAPGQGLEWMGDINPSTGGTIYNQKFNGRVTMTEDKSTSTVYMELSSLRSEDTAVYYCARRRIGTGYFDVWGQGTTVTVSSGGGGSGGGGSGGGGSEIVLTQSPATLSLSPGERATLSCSASSSVISSYLSWYQQKPGQSPRLLIYRTSNLASGIPARFSGSGSGTDYTLTISSLEPEDFAVYYCHQWSSFPYTFGGGTKVEIK
notes: also called S009-F7.44.20 humanized antibody VH1 + VL3
**Q.** What does the source list for B3?
**A.** OD450 [1]: 2.74 OD450; OD450 (human MSLN-R3 protein [2]): 2.12 OD450; OD450 [3]: 2.96 OD450; OD450 [4]: 0.04 OD450; OD450 [5]: 0.06 OD450; OD450 (human MSLN-R3 protein [6]): 0.04 OD450; OD450 [7]: 0.04 OD450; OD450 [8]: 1.22 OD450; OD450 (human MSLN-R3 protein [9]): 0.1 OD450; OD450 (human MSLN-R3 protein [10]): 0.05 OD450; OD450 [11]: 0.15 OD450; OD450 (human MSLN-R3 protein [12]): 0.83 OD450; OD450 (human MSLN-R3 protein [13]): 2.21 OD450; OD450 (human MSLN-R3 protein [14]): 0.04 OD450

B4: F7.44.20-H11 (scFv, not shown: small tags and cut ends)
scFv: EVQLVQSGAEVKKPGASVKVSCKASGYTFTDYNMDWVRQAPGQGLEWMGDINPSTGGTIYNQKFNGRVTMTEDKSASTVYMELSSLRSEDTAVYYCARRRIGTGYFDVWGQGTTVTVSSGGGGSGGGGSGGGGSEIVLTQSPATLSLSPGERATLSCSASSSVISSYLSWYQQKPGQSPRLLIYRTSNLASGIPARFSGSGSGTDYTLTISSLEPEDFAVYYCHQWSSFPYTFGGGTKVEIK
notes: also called S009-F7.44.20 humanized antibody VH2 + VL3
**Q.** Which OD450 [1] does the source give for B4 here?
**A.** The OD450 was 2.91 OD450.

**Q.** What about the OD450 (human MSLN-R3 protein [2]) of the same binder?
**A.** Its OD450 is 2.41 OD450.

**Q.** And the OD450 [3]?
**A.** Its OD450 is 3.28 OD450.

**Q.** What about the OD450 [4] of the same binder?
**A.** Its OD450 is 0.05 OD450.

**Q.** And the OD450 [5]?
**A.** Its OD450 is 0.06 OD450.

**Q.** What about the OD450 (human MSLN-R3 protein [6]) of the same binder?
**A.** Its OD450 is 0.04 OD450.

**Q.** And the OD450 [7]?
**A.** The OD450 was 0.05 OD450.

**Q.** What about the OD450 [8] of the same binder?
**A.** The OD450 was 1.69 OD450.

**Q.** And the OD450 (human MSLN-R3 protein [9])?
**A.** Its OD450 is 0.16 OD450.

**Q.** What about the OD450 (human MSLN-R3 protein [10]) of the same binder?
**A.** The OD450 was 0.05 OD450.

**Q.** And the OD450 [11]?
**A.** The OD450 was 0.27 OD450.

**Q.** What about the OD450 (human MSLN-R3 protein [12]) of the same binder?
**A.** The OD450 was 1.1 OD450.

**Q.** What about the OD450 (human MSLN-R3 protein [13]) of the same binder?
**A.** The OD450 was 2.43 OD450.

**Q.** What about the OD450 (human MSLN-R3 protein [14]) of the same binder?
**A.** The OD450 was 0.05 OD450.

B5: F7.44.20-H16 (scFv, not shown: small tags and cut ends)
scFv: EVQLVQSGAEVKKPGASVKVSCKASGYTFTDYNMDWVRQAPGQGLEWMGDINPSTGGTIYNQKFSGRVTMTEDKSASTVYMELSSLRSEDTAVYYCARRRIGTGYFDVWGQGTTVTVSSGGGGSGGGGSGGGGSEIVLTQSPATLSLSPGERATLSCSASSSVISSYLSWYQQKPGSSPRLLIYRTSNLASGIPARFSGSGSGTDYTLTISSLEPEDFAVYYCHQWSSFPYTFGGGTKVEIK
notes: also called S009-F7.44.20 humanized antibody VH2a + VL4
**Q.** Which results are given for B5?
**A.** OD450 [1]: 2.4 OD450; OD450 (human MSLN-R3 protein [2]): 1.6 OD450; OD450 [3]: 2.97 OD450; OD450 [4]: 0.05 OD450; OD450 [5]: 0.05 OD450; OD450 (human MSLN-R3 protein [6]): 0.04 OD450; OD450 [7]: 0.05 OD450; OD450 [8]: 1.12 OD450; OD450 (human MSLN-R3 protein [9]): 0.1 OD450; OD450 (human MSLN-R3 protein [10]): 0.04 OD450; OD450 [11]: 0.16 OD450; OD450 (human MSLN-R3 protein [12]): 0.72 OD450; OD450 (human MSLN-R3 protein [13]): 1.8 OD450; OD450 (human MSLN-R3 protein [14]): 0.06 OD450
